Experimental data reported in a protein production outcome set (Wang et al. 2014).

Assay: label from the status in PepcDB records
In the case of “MVYKPLEASDRTELRALQSDRLQRIVTHAHENVPFYREKLDAAGVSPEDIQSIDDITKLPMTTKEDFRDEYPDGLFAVDDEEVARIHASSGTTGKPKIVSYTDDDLDTWSEVVARSLAASGTEAGDTVQNAYGYGLFTGGLGIHYGTEELGASVVPIGSGQTQRQVELMTDLESDVFTCTPSYALYLAETAEEMGHDPRDLPISTIIFGAEPCTDPMREEIEERLGVDGIDIYGLSEIIGPGVSCECHEAKDGLHIWEDHFYPEVIDPHTKEPVEEGEEGELVLTTLTKEALPVFRYRTGDLTTLNYDECACGRTMVRMDNVTGRTDDLLIVRGVNLYPSEIEHAVLDIDGVAPHYRIDLYKEDNLDILELTIERTAEQGPGDKALEDEIIERLENVLAFTPDELELVAPGSIERTQVGKVKRVYDHRD”, the protein production is reported as “not failed”.
In the case of “MWALLLRFYIALPLSVIVLLVLKTSFPTHKQALHSYFAGSFSLIGSQIFTYAATQYLSSGMIALMFGLAPIMAGLIGRFAFGQHLFKLQWLGMAVAVCGLAIICLNGSNQHVHPFGIVLMLVSVFVYSFSIFWVKKVNAKIQPMAQATGSILVSSILASCLIPFIWQYAPTHLPQAKSLFALIYTVLMASLVAMFCYFKLVQNIKPTTLSLTTVITPMLAMIIGAVLNHEQLSIMVFVGAFIILFGLFLYFYKDIQANRNFAQHIKSK”, the protein production is reported as “failed”.
For “MWDMKFVDRIDEAARLKDALAREKSSLVVMYGRRRLGKSTLIKRVLSENDVYFLADRSEGQHQRALLAKVIAQVFPDFEKLSYPDWESMFRAVNYRTDKRFTLCLDEFPYLVEQSPELPSVLQKLVDEKQLKYNLVLCGSSQNMMYGLFLDSTAPLYGRADEIMRLTPIRLPYIQEALNLNAMNAIEEYAIWGGVPRYWELRENRISLDDAMWHNILSVNGTLYEEPVKLFQDDVKDIVKTSTIMSYIGTGANRLSEIAARCNEPATNLSRPLKKLVDLGFLEKDVPFGIDEKNAKKSLYKIADPFMAFYYQFVVPNRSFIELGRRLPIEQALTAHFSEYVSMQWEKLCRDAVTGNLVNGVVYGKAKRWWGSVLNEDKKPEQVEFDVMAESLDKKYLLVGECKWTTGENGKQLTAELLRKANLLPFAKNYTIVPVLFLKNAPKDDAGNAMLSENVVELMK”, the protein production was “failed”.
With “MWEPACKNRTRTLAGLAPLLASIQSPSPPSVVLRLDPSTRTQALCPHPATARGNPMSRIFITGSTDGLGLAAARTLISQGHDVVLHARSRQRAAAIADTSAAALSLVIGDLASAAETRSIADQVNAFGRMDAVIHNAGIYLERSRGETPEGHAKTLAVNVLAPYLLTAWITRPDRLIYLSSGMHRSGASTLDDIDWKRRPWNASQAYSESKLYIATLAALARHWPDALSNAVDPGWVPTKMGGAGAPDDLEMGHLTQTWLATSDEGAAKVSGGYWYHRQRREAAAEVGDVGFQEALVGRLAELTGVRLFAERG” the protein production was “failed”.
For “MWFQLSSLRSILNVSTALRQVVVRTPWYAKRKSYKVLFWREITPLAIPIFLENTCVLLMGVLSTFLVSWLGKEAMAGVGLADSFNMVIMAFFAAIDLGTTVVVAFSLGKRDRRRARAAARQSLVIMTLFAVVLAVVIHYFGSEIINIVAGEATPEVKGLALTYLELTVLSYPAAAIALIGSGALRGAGNTKIPLMINGGMNILNIVISSILIYGAFSWQGLGFAGAGLGLTISRYIGAVAIIWVLMIGFNPALRIPLKSYLKPLNFGIIWEVMGIGIPASIESVLFNGGKLLTQMFVAGMGTNVIAGNFIAFSVAALINLPGNALGSASTIITGKRLGTGQIGQAERQLRHVFWMSTIVLTAIAWGTAPFAGLFASFYTQEQDVKEVVKVLLWLNAAFMPIWAAAWVLPSGFKGARDVRFAMWVSMLGMWGCRVVAGYTLGIVLGMGVVGVWLGMFLDWAVRGALFYWRLISGRWLWRYPRVKRE”, the protein production was “failed”.
With “MWGRLLLWPLVLGFSLSGGTQTPSVYDESGSTGGGDDSTPSILPAPRGYPGQVCANDSDTLELPDSSRALLLGWVPTRLVPALYGLVLVVGLPANGLALWVLATQAPRLPSTMLLMNLATADLLLALALPPRIAYHLRGQRWPFGEAACRLATAALYGHMYGSVLLLAAVSLDRYLALVHPLRARALRGRRLALGLCMAAWLMAAALALPLTLQRQTFRLARSDRVLCHDALPLDAQASHWQPAFTCLALLGCFLPLLAMLLCYGATLHTLAASGRRYGHALRLTAVVLASAVAFFVPSNLLLLLHYSDPSPSAWGNLYGAYVPSLALSTLNSCVDPFIYYYVSAEFRDKVRAGLFQRSPGDTVASKASAEGGSRGMGTHSSLLQ” the protein production was “failed”.
